Assay results as given in patent US20240084039A1.
Residue numbers refer to the chain shown, from its start. Each block holds one binder with its values, some of them ahead of it.

Biological target: pre-existing anti-drug antibodies (ADA) present in human sera
Assay: ELISA pre-existing ADA binding assay, confirmatory setup, test molecule coated, 20 human sera

% positives of total tested serum samples: 10%
No of positive serum samples above 30% CCP (serum samples): 2
B1: PRO2922 (scFv)
scFv: DIQMTQSPSSLSASVGDRVTITCQASESIYSSLAWYQQKPGKAPKLLIYLASTLASGVPSRFSGSGSGTDFTLTISSLQPEDFATYYCQSTDYTTSTHRNSFGTGTKVTVLGGGGGSGGGGSGGGGSGGGGSEVQLVESGGGRVQPGGSLRLSCAASGFSFSTTYYMCWVRQAPGKGLEWIGCTNTASSVRTYYATWAKGRFTISRDNSKNTVYLQMNSLRAEDTAVYYCARDMGFADYALNLWGQGTLVTVSS

% positives of total tested serum samples: 10%
No of positive serum samples above 30% CCP (serum samples): 2
B3: PRO2920 (scFv)
scFv: B1 scFv with L249Q

% positives of total tested serum samples: 75%
No of positive serum samples above 30% CCP (serum samples): 15
B5: PRO2924 (scFv)
scFv: B1 scFv with R143L, L249Q

% positives of total tested serum samples: 55%
No of positive serum samples above 30% CCP (serum samples): 11
B6: PRO2921 (scFv)
scFv: B1 scFv with R143L, V227T, L249Q

% positives of total tested serum samples: 25%
No of positive serum samples above 30% CCP (serum samples): 5
B7: PRO2925 (scFv)
scFv: B1 scFv with R143S, V227T, L249Q

% positives of total tested serum samples: 25%
No of positive serum samples above 30% CCP (serum samples): 5
B8: PRO2990 (scFv)
scFv: B1 scFv with R143S, V227T, L249T

% positives of total tested serum samples: 40%
No of positive serum samples above 30% CCP (serum samples): 8
B11: PRO2926 (scFv)
scFv: DIQMTQSPASLSASVGDRVTITCQASQSIGTYLAWYQQKPGKPPKLLIYRAFILASGVPSRFSGSGSGTDFTLTISSLQPEDFATYYCQSNFYSDSTTIGPNAFGTGTKVTVLGGGGGSGGGGSGGGGSGGGGSEVQLVESGGGSVQPGGSLRLSCAASGFSFNSDYWIYWVRQAPGKGLEWIASIYGGSSGNTQYASWAQGRFTISRDNSKNTVYLQMNSLRAEDTATYFCARGYVDYGGATDLWGQGTQVTVSS

% positives of total tested serum samples: 25%
No of positive serum samples above 30% CCP (serum samples): 5
B14: PRO2984 (scFv)
scFv: B11 scFv with Q251T

The remaining lines, values behind:

B2: PRO2919 (scFv)
scFv: B1 scFv with V227T
% positives of total tested serum samples: 5%
No of positive serum samples above 30% CCP (serum samples): 1

B4: PRO2918 (scFv)
scFv: B1 scFv with V227T, L249Q
% positives of total tested serum samples: 25%
No of positive serum samples above 30% CCP (serum samples): 5

B9: PRO2907 (scFv)
scFv: B11 scFv with S145R, T229V, Q251L
% positives of total tested serum samples: 15%
No of positive serum samples above 30% CCP (serum samples): 3

B10: PRO2903 (scFv)
scFv: B11 scFv with S145R
% positives of total tested serum samples: 30%
No of positive serum samples above 30% CCP (serum samples): 6

B12: PRO2909 (scFv)
scFv: B11 scFv with S145L, T229V
% positives of total tested serum samples: 50%
No of positive serum samples above 30% CCP (serum samples): 10

B13: PRO2905 (scFv)
scFv: B11 scFv with S145R, T229V
% positives of total tested serum samples: 20%
No of positive serum samples above 30% CCP (serum samples): 7

B15: PRO2906 (scFv)
scFv: B11 scFv with S145L
% positives of total tested serum samples: 95%
No of positive serum samples above 30% CCP (serum samples): 19

B16: PRO2741 (protein)
chain 1: DIQMTQSPSSLSASVGDRVTITCQASESIYSSLAWYQQKPGKAPKLLIYLASTLASGVPSRFSGSGSGTDFTLTISSLQPEDFATYYCQSTDYTTSTHRNSFGTGTKVTVLGGGGGSGGGGSGGGGSGGGGSEVQLVESGGGRVQPGGSLRLSCAASGFSFSTTYYMCWVRQAPGKGLEWIGCTNTASSVRTYYATWAKGRFTISRDNSKNTVYLQMNSLRAEDTATYYCARDMGFADYALNLWGQGTQVTVSSGGGGSGGGGSEVQLVESGGGRVQPGGSLRLSCAASGFSLSSYDMSWVRQAPGKGLAWIGASYASGPTYYASWAKGRFTISRDNSKNTVYLQMNSLRAEDTATYFCARGGWTGTSHSNIWGQGTQVTVSSGGGSGGGSGGGSGEVQLVESGGGRVQPGGSLRLSCAASGFSLSSYAMNWVRQAPGKCLEWIGHINAGDIAYYATWAKGRFTISRDNSKNTVYLQMNSLRAEDTATYFCARGAGGFSTGPFKLWGQGTQVTVSS
chain 2: DIQMTQSPSSLSASVGDRVTITCQASESIYSSLAWYQQKPGKAPKLLIYLASTLASGVPSRFSGSGSGTDFTLTISSLQPEDFATYYCQSTDYTTSTHRNSFGTGTKVTVLGGGGGSGGGGSGGGGSGGGGSEVQLVESGGGRVQPGGSLRLSCAASGFSFSTTYYMCWVRQAPGKGLEWIGCTNTASSVRTYYATWAKGRFTISRDNSKNTVYLQMNSLRAEDTATYYCARDMGFADYALNLWGQGTQVTVSSGGGGSGGGGSAFELTQSPSSLSASVGDRVTITCQASESINSRLAWYQQKPGQPPKLLIYDASDLTSGVPSRFSGSGSGTDFTLTISSLQPEDFATYYCQGYGGSSTTTFGCGTKLTVLGGGSGGSDIQMTQSPSSLSASVGDRVTITCQSSQSVFSNNYLAWFQQKPGQSPKRLIYSASTLASGVPSRFSGSGSGTDFTLTISSLQPEDFATYYCLGSYACSSADCYVFGTGTKVTVLG
% positives of total tested serum samples: 15%
No of positive serum samples above 30% CCP (serum samples): 3

B17: PRO2660 (protein)
chain 1: B16 chain 1 with R143L, T227V, Q249L, R275L, Q378L, R407L, T488V, Q511L
chain 2: B16 chain 2 with R143L, T227V, Q249L
% positives of total tested serum samples: 30%
No of positive serum samples above 30% CCP (serum samples): 6
